{"source": "patent EP2103936A1", "key": {"[1]": {"molecular_target": "bt-MalE (Escherichia coli) [MBP: P0AEX9]", "assay": "Biacore kinetics, bt-MalE on streptavidin SA chip, buffer M3 (5 mM DTT), 25 °C, Langmuir model"}, "[2]": {"molecular_target": "bt-MalE (Escherichia coli) [MBP: P0AEX9]", "assay": "Biacore kinetics, bt-MalE on SA chip, buffer M2 (no reducing agent), heterogeneous analyte model, population 2 (kon2), taken as the non-coupled molecules of the L53ANBD preparation"}, "[3]": {"molecular_target": "bt-MalE (Escherichia coli) [MBP: P0AEX9]", "assay": "Biacore kinetics, bt-MalE on SA chip, buffer M2 (no reducing agent), heterogeneous analyte model, population 2 (kon2), taken as the non-coupled molecules of the N45ANBD preparation"}, "[4]": {"molecular_target": "bt-MalE (Escherichia coli) [MBP: P0AEX9]", "assay": "Biacore kinetics, bt-MalE on SA chip, buffer M2 (no reducing agent), heterogeneous analyte model, population 2 (kon2), taken as the non-coupled molecules of the R23ANBD preparation"}, "[5]": {"molecular_target": "bt-MalE (Escherichia coli) [MBP: P0AEX9]", "assay": "Biacore kinetics, bt-MalE on SA chip, buffer M2 (no reducing agent), heterogeneous analyte model, population 2 (kon2), taken as the non-coupled molecules of the T46ANBD preparation, possibly dimeric"}}}
{"substance": "DarpOff7(L53C) (designed binder)", "values": [{"measurement": "kon", "setting": "[1]", "value": 370000, "unit": "M⁻¹ s⁻¹"}, {"measurement": "kon", "setting": "[2]", "value": 580000, "unit": "M⁻¹ s⁻¹"}]}
{"substance": "DarpOff7(N45C) (designed binder)", "values": [{"measurement": "kon", "setting": "[1]", "value": 290000, "unit": "M⁻¹ s⁻¹"}, {"measurement": "kon", "setting": "[3]", "value": 240000, "unit": "M⁻¹ s⁻¹"}]}
{"substance": "DarpOff7(R23C) (designed binder)", "values": [{"measurement": "kon", "setting": "[1]", "value": 410000, "unit": "M⁻¹ s⁻¹"}, {"measurement": "kon", "setting": "[4]", "value": 430000, "unit": "M⁻¹ s⁻¹"}]}
{"substance": "DarpOff7(T46C) (designed binder)", "values": [{"measurement": "kon", "setting": "[1]", "value": 170000, "unit": "M⁻¹ s⁻¹"}, {"measurement": "kon", "setting": "[5]", "value": 18000, "unit": "M⁻¹ s⁻¹"}]}
